Measured values: publication PMC13186709
Substitutions are numbered along the chain they refer to.

Experiments:
[1] = biological target: T1, Egalitarian (Egl);Bicaudal D (BicD) (Drosophila melanogaster;Drosophila …, UniProt Q9W1K4;P16568 1-1004;1-782, |); experiment: MST; prep 4; MST: 1 nM Cy5-RNA in GF150 (25 mM HEPES pH 7.3, 150 mM KCl, 1 mM MgCl2, 0.1 mM Mg-ATP, 5 mM DTT, 10% glycerol) + 0.05% Tween-20, 15 min, room temperature; Egl-BicD conc. as 2:2 complex; settings: protein: recombinant;recombinant; tags: C-terminal TEV-ZZ (cleaved);; chain copies: 2;2; label: 5'-Cy5; hairpin
T1 sequence (chain, as listed by the source |, chain 1 of 2): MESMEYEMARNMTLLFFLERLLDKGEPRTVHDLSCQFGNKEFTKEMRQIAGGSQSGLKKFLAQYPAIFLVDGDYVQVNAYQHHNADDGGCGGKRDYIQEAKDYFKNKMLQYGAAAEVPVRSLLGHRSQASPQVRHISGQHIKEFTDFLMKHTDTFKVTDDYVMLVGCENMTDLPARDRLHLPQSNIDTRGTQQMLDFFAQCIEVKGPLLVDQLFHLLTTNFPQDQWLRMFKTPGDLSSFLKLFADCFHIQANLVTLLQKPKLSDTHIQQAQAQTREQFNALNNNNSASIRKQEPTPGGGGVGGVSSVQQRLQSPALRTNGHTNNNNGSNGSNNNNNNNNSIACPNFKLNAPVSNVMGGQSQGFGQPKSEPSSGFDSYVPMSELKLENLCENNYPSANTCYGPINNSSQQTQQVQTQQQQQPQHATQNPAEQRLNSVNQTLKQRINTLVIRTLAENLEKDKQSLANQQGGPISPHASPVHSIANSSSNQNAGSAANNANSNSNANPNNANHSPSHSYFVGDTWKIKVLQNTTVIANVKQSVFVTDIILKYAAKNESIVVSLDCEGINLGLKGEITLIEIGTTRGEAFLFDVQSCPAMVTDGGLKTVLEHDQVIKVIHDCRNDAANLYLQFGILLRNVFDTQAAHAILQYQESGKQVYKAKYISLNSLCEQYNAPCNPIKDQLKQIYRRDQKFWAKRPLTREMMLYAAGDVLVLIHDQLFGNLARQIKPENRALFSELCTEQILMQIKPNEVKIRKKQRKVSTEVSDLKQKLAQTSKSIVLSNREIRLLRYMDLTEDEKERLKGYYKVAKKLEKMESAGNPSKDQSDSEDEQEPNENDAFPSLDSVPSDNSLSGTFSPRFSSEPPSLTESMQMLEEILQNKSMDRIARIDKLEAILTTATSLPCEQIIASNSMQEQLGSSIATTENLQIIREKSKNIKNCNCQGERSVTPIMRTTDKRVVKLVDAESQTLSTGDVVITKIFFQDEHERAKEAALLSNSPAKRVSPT
T1 sequence (P16568 whole entry, chain 2 of 2): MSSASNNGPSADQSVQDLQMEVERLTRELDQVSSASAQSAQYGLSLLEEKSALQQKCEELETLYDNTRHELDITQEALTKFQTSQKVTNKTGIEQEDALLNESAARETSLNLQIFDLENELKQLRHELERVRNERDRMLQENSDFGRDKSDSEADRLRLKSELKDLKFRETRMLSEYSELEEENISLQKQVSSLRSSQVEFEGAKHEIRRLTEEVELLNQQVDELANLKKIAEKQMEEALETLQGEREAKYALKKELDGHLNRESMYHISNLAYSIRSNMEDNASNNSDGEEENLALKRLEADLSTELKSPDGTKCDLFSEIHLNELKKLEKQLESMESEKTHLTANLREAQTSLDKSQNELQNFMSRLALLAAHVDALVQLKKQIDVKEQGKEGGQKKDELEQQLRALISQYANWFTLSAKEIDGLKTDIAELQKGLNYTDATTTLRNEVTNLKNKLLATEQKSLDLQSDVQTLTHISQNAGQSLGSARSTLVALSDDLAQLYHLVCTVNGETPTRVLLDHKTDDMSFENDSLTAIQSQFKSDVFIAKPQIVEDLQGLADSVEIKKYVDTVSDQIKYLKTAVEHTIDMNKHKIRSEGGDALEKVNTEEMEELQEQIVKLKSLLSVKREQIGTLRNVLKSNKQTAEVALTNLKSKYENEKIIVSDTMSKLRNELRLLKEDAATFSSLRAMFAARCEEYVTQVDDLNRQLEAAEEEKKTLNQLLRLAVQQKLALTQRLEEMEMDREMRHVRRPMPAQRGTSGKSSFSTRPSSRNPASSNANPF

[2] = biological target: T1, Egalitarian (Egl);Bicaudal D (BicD); experiment: MST; MST: 1 nM Cy5-RNA in GF150 (25 mM HEPES pH 7.3, 150 mM KCl, 1 mM MgCl2, 0.1 mM Mg-ATP, 5 mM DTT, 10% glycerol) + 0.05% Tween-20, 15 min, room temperature; Egl-BicD conc. as 2:2 complex; settings: protein: recombinant;recombinant, tags: C-terminal TEV-ZZ (cleaved);, chain copies: 2;2, label: 5'-Cy5
[3] = biological target: T1, Egalitarian (Egl);Bicaudal D (BicD); experiment: MST; two experiments, different preps; MST: 1 nM Cy5-RNA in GF150 (25 mM HEPES pH 7.3, 150 mM KCl, 1 mM MgCl2, 0.1 mM Mg-ATP, 5 mM DTT, 10% glycerol) + 0.05% Tween-20, 15 min, room temperature; Egl-BicD conc. as 2:2 complex; settings: protein: recombinant;recombinant; tags: C-terminal TEV-ZZ (cleaved);; chain copies: 2;2; label: 5'-Cy5; straight hairpin
[4] = biological target: T1, Egalitarian (Egl);Bicaudal D (BicD); experiment: single-molecule motility; with human dynein and pig dynactin; single RNA per motile complex; MST: 1 nM Cy5-RNA in GF150 (25 mM HEPES pH 7.3, 150 mM KCl, 1 mM MgCl2, 0.1 mM Mg-ATP, 5 mM DTT, 10% glycerol) + 0.05% Tween-20, 15 min, room temperature; Egl-BicD conc. as 2:2 complex; settings: protein: recombinant;recombinant; tags: C-terminal TEV-ZZ (cleaved);; chain copies: 2;2; label: Cy3- or Cy5-UTP; two hairpins

B1: TLS∆b (structured_RNA)
RNA: UUACACCACUUGAUUGUAUUUUUAAAUUAAUUCUUAAAAAUACAAUUAAGAUCACUCU
Kd [1]: 2800 ± 510 nM

B2: hSL2 (structured_RNA)
RNA: AACUUCGUUGGCUUAGUUUCCUGGCUUAUAUCCUGGAAACCCGUCGACGAGG
Kd ([2]; hairpin with bulges): 603 ± 79 nM

B3: hSL1∆b (structured_RNA)
RNA: UGCGCGUAGACAUUUCACAUCAUUCGCCGGGAUUGGCAAAUGUUGUGAAGUGUUGCAAACAU
Kd ([2]; hairpin): 204 ± 36 nM

B4: bcdSLV (MST) (structured_RNA)
RNA: AAAAAUGUUUCUCUUGGGCGUAAUCUCAUACAAUGAUUACCCUUAAAGAUCGAACAUUU
Kd ([2]; hairpin with bulges): 231 ± 64 nM

B5: KSE (structured_RNA)
RNA: AAACCCAAUUGAACAUAUAGUGGAAUUAUUAUUAUCAAUGGGGAAUAUUUAACCC
Kd ([2]; hairpin): 507 ± 93 nM

B6: 2NUE RNA (structured_RNA)
RNA: AAGGGACAAGCGCAAGGUCAUUCGCAAGAGUGGCCUUGCGCUUGUCCC
binding result [3]: no binding

B7: GLS (MST) (structured_RNA)
RNA: AAAGUAAUUUUCGUGCUCUCAACAAUUGUCGCCGUCACAGAUUGUUGUUCGAGCCGAAUCUUACU
Kd ([2]; hairpin with bulges): 39 ± 14 nM

B8: TLS-2xGCED1 (structured_RNA)
RNA: UUACACCACUUGAGGGUAUUUUUAAAUUAAUUCUUAAAAACUACACCUUAAGAUCACUCU
Kd ([2]; hairpin with 3'-strand bulges): 376 ± 154 nM

B9: TLS-2xGCED1+GCED2 (structured_RNA)
RNA: B8 RNA with U23G, A36C
Kd ([2]; hairpin with 3'-strand bulges): 1510 ± 210 nM

B10: TLS-GCED2 (structured_RNA)
RNA: B8 RNA with G14U, G15U, U23G, A36C, C46A, C47A
Kd ([2]; hairpin with 3'-strand bulges): 425 ± 140 nM

B11: TLS-AUED1/ED2 (structured_RNA)
RNA: B8 RNA with G14A, G15U, U23A, A36U, C46A, C47U
Kd ([2]; hairpin with 3'-strand bulges): 746 ± 91 nM

B12: TLS-GCED1/ED2 (structured_RNA)
RNA: B8 RNA with G15U, U23G, A36C, C46A
Kd ([2]; hairpin with 3'-strand bulges): 4110 ± 1540 nM

B13: TLS-CGED1/ED2 (structured_RNA)
RNA: B8 RNA with G14C, G15U, U23C, A36G, C46A, C47G
Kd ([2]; hairpin with 3'-strand bulges): 345 ± 34 nM

B14: TLS-KSE (structured_RNA)
RNA: GUCAAAGCUUACCUUGAUUGUAUUUUUAAAUUAAUUCUUAAAAACUACAAAUUAAGUUGCAAACAUGCGAAUCCUAAACUCGGUUCACAACUUCCCCAAUUGAACAUAUAGUGGAAUUAUUAUUAUCAAUGGGGAAUAUGCUAGC
binding result [4]: binds
